Reference: publication PMC11109196 (Nature Communications, 2024)

How the values were obtained:
[1] = target: T1, CM244 gp120 (HIV-1 isolate CM244 (CRF01_AE; printed …, UniProt Q4QX31, strain); assay: flow cytometry on cells; blocking format: HmAb64 added to biotinylated gp120 in the staining of primary human CD4+ T cells; loss of gp120 staining read out (2, 4, 8 ug HmAb64 with 2 ug ADA gp120 in panel b); conditions: both partners purified
T1 construct: also called CM244 (AE); CM224

[2] = target: T2, AD8 gp120 (HIV-1 subtype B, AD8, UniProt O40222, strain); assay: as above; conditions: both partners purified
T2 construct: also called AD8 (B)

[3] = target: T3, MW959 gp120 (HIV-1 subtype C, 93MW959 (isolate 959 …, strain)); assay: as above; conditions: both partners purified
T3 construct: also called MW959 (C)

[4] = target: T4, SF162 gp120 (HIV-1 (SF162), UniProt P19550); assay: as above; conditions: both partners purified
T4 construct: also called SF162 (B)

[5] = target: A244 gp120 (HIV-1 isolate A244); assay: SPR; Biacore 3000, CM4 or CM5 chip; gp120 or BG505-SOSIP immobilised by amine coupling to about 750 RU; HBS pH 7.4, 3 mM EDTA, 0.005% Tween-20, 0.05% carboxymethyl-dextran; 25 ul/min, 25 C; conditions: both partners purified
[6] = target: gp120 Czm (clade C, 96ZM652) (HIV-1 subtype C, named 96ZM652; entry …, strain); assay: ELISA; HmAb64 on gp120, gp120-Core or their D368R mutant protein, as previously described; conditions: both partners purified
[7] = target: T5, wild-type gp120 Env protein, HIV-1 isolate JR-FL (HIV-1 isolate JR-FL, UniProt Q75760, strain); assay: as above; conditions: both partners purified
T5 construct: also called JR-FL gp120

[8] = target: T6, wild-type gp120 Env protein, HIV-1 isolate YU2 (HIV-1 isolate YU2, UniProt P35961); assay: as above; conditions: both partners purified
T6 construct: also called YU2 gp120

[9] = target: gp120 A2 (clade A, 92UG037.8) (HIV-1 isolate 92UG037.8 (clade A), UniProt Q70200, strain); assay: as above; conditions: both partners purified
[10] = target: T7, biotinylated gp120 of HIV-1 CM244 (HIV-1 isolate CM244 (CRF01_AE; printed …, UniProt Q4QX31, strain); assay: flow cytometry on cells; HmAb64 added to biotinylated gp120 and read by the loss of gp120 staining of primary CD4+ T cells; conditions: both partners purified
T7 construct: also called CM224 (as printed in the methods)

[11] = target: biotinylated gp120 of HIV-1 SF162 (HIV-1 isolate SF162, UniProt P19550, strain); assay: as above; conditions: both partners purified
[12] = target: T8, HIV-1 SF162 Env on infected human CD4+ T cells (HIV-1 isolate SF162, UniProt P19550, strain); assay: flow cytometry on cells; primary human CD4+ T cells infected with HIV SF162 for 3 days, stained with HmAb64 (2 ug), goat anti-human-PE; conditions: one partner purified
T8 construct: also called HIV-1 SF162 infected CD4+ T cells; source: primary human CD4+ T cells infected with HIV SF162, on the cell surface

Measured: binding result

B1: HmAb64 (antibody, V domains shown)
VH: QVQLVQSGAEVKKPGASVKVSCKASGYTFTSYDITWVRQAPGQGLEWMGWISAYNGDTNYAQRLQGRVTMTTDTSTSTAYMELRSLRSDDTAVYYCARAKHTVLVTAMRWFDPWGQGTLVTVSS
VL: DIQMTQSPSSLSASVGDRVTITCRASQSISNYLNWYQQKPGKAPKLLISATSSLQSGVPSRFSGSGSGTDFTLTISSLQPDDFATYYCQQSYSTPWTFGQGTKLEIK
notes: also called HmAb64 mAb; source: Freestyle 293F cells, transfected, purified (Protein A HP columns)
binds: [1] | [2] | [3] | [4]

B2: HmAb64 (antibody, V domains shown)
VH: QVQLVQSGAEVKKPGASVKVSCKASGYTFTSYDITWVRQAPGQGLEWMGWISAYNGDTNYAQRLQGRVTMTTDTSTSTAYMELRSLRSDDTAVYYCARAKHTVLVTAMRWFDPWGQGTLVTVSS
VL: DIQMTQSPSSLSASVGDRVTITCRASQSISNYLNWYQQKPGKAPKLLISATSSLQSGVPSRFSGSGSGTDFTLTISSLQPDDFATYYCQQSYSTPWTFGQGTKLEIK
notes: also called human IgG (HmAb64); clone #64; source: Freestyle 293F cells, transfected (mAb64-HC/pJW4303 and mAb64-KC/pJW4303), purified from supernatant (Protein A)
binds: [5] | [6] | [7] | [8] | [9] | [10] | [11] | [12]
